# Laboratory results taken from US20050202010A1, “Method of treatment and bioassay involving macrophage migration inhibitory factor (MIF) as cardiac-derived myocardial depressant factor” (priority 2003, published 2005).
# Values joined by “and” are separate entries in the source; they are usually repeats but may differ in a detail not shown here. Equal entries are not always repeated.
# Assays:
# [1] = system: spontaneously beating normal mouse hearts (C57BL/6J); test: Langendorff preparation, hearts perfused with rMIF (C57BL/6J); settings: C57BL/6J hearts, 20 ng/ml rMIF, 1.5 ml/m
# Procedure: Determination of cardiac function in response to rMIF. C57BL/6J and C3H/HeJ mice were used in the Langendorff assays. Briefly, 200 U heparin sulfate was given i.p., the mice sacrificed 20 m later, and the heart immediately removed and placed on ice in Krebs-Hanseleit Buffer ([…], 118 mM NaCl, 4.7 mM KCL, 1.2 mM KH2PO4, 1.2 mM MgSO4, 2.5 mM CaCl2, 11.1 mM glucose, pH 7.4, which was prepared fresh with demineralized, deionized water and bubbled with 95% O2 and 5% CO2 (PO2 590 mmHg, pCO2 38 mmHg)). The aorta was cannulated with PE50 tubing, the heart perfused in a retrograde manner through the aortic root with prefiltered, oxygenated Krebs-Hanseleit Buffer at a constant flow rate of 1.5 ml/m (T 37° C.) and a recirculating volume of 100 ml. The heart was placed in a water-jacketed chamber to maintain constant temperature and humidity. PE60 intratnedic polyethylene tubing was connected to a Statham pressure transducer inserted into the left ventricle (LV) to measure LV pressure. Temperature was monitored using a 27 G thertnistor needle inserted into the LV muscle. […] Following stabilization, LV pressure and its first derivative (dP/dt), heart rate, and coronary perfusion were measured simultaneously with a multichannel Grass 7D polygraph (Grass Instruments, Quincy, M A). Cardiac function for all hearts was determined by plotting peak systolic LV pressure and ±dP/dt,Ia, values against changes in coronary flow rate.
# MIF induces systolic and diastolic cardiac dysfunction. […] Responses to MIF were determined in hearts from both C57BL/6J mice, and C3H/HeJ mice. C3H/HeJ mice are resistant to endotoxin (41-43), therefore controlling for the possibility that any depression observed might be due to trace endotoxin in the perfusate. Table 2 illustrates the responses of both mouse strains to retrograde aortic perfusion at 1.5 ml/m with control perfusate or perfusate containing 20 ng/ml recombinant MIF. Perfusion with MIF led to a significant decrease in LVP, +dP/dtmax, and −dP/dt max in both mouse strains. FIG. 4 illustrates the effect of MIF over a range of coronary flow rates. […]
# [2] = system: isolated TNFR−/− hearts; test: Langendorff perfusion with rMIF, TNFR−/− hearts; parameters: species or system mouse
# Procedure: (§1) Ex vivo cardiac function determination by Langendorff Mouse heart function was determined using the Langendorff assay procedure. Briefly, 200 Units heparin sulfate were injected intraperitoneally and the mice were sacrificed 20 minutes later. The heart was immediately removed and placed on ice in Krebs-Henseleit Buffer ([…], 118 mM NaCl, 4.7 mM KCL, 1.2 mM KH2PO4, 1.2 mM MgSO4, 2.5 mM CaCl2, 11.1 mM glucose, pH 7.4, which was prepared fresh with demineralized, deionized water and bubbled with 95% O2 and 5% CO2(pO2 590 mmHg, pCO2 38 mmHg)). The aorta was cannulated with PE50 tubing, the heart perfused in a retrograde manner through the aortic root with pre-filtered, oxygenated Krebs-Henseleit Buffer at a constant flow rate of 1.5 ml/minute (constant temperature of 37° C., 100 ml recirculating volume). The heart was placed in a water-jacketed chamber to maintain constant temperature and humidity. Intramedic polyethylene tubing (PE60), connected to a Statham pressure transducer, was inserted into the left ventricle (LV) to measure LV pressure. Temperature was monitored using a 27 gauge thermistor needle inserted into the LV muscle. […] Following stabilization, LV pressure and its first derivative (dP/dt), heart rate, and coronary perfusion were measured simultaneously with a multi-channel Grass 7D polygraph (Grass Instruments, Quincy, Mass.). Ventricular performance as a function of coronary perfusion was determined for all hearts by plotting peak systolic LV pressure and ±dP/dtmax values against incremental increases in coronary flow rate.
# (§2) MIF has direct cardiodepressant effects in TNFR−/− mice to the same extent as in WT mice.
# [3] = system: isolated wild type hearts; test: Langendorff perfusion with rMIF, wild type hearts; parameters: species or system mouse; settings: WT + rMIF 20 ng/ml
# Procedure: as §1, §2
# [4] = system: C57BL/6 hearts; test: Langendorff, rhMIF added to perfusate, C57BL/6 hearts; parameters: species or system mouse; LVP / TPP / RT90 / Max + d / Max − d: unit not given beside the values
# [5] = C57BL/6 + rhMIF in perfusate, n = 3
# [6] = C57BL/6 + rhMIF, single hearts by date and mean (x), n 3
# [7] = C57BL/6 + rhMIF, single hearts by date and mean (x), n 3, mean
molecule,measurement,setting,value
"rMIF: recombinant human macrophage migration inhibitory factor added to the heart perfusate at 20 ng/ml (protein, UniProt P14174 2-115, looked up) Macrophage migration …: PMFIVNTNVPRASVPDGFLSELTQQLAQATGKPPQYIAVHVVPDQLMAFGGSSEPCALCSLHSIGKIGGAQNRSYSKLLCGLLAERLRISPDRVYINYYDMNAANVGWNNSTFA",+dP/dt max,[1]; n = 10,1920 ± 89 mm Hg/see
same,−dP/dt max,[1]; n = 10,1545 ± 122 mm Hg/sec
same,LVP,"[1]; n = 10, mean peak",77.9 ± 5.1 mm Hg
same,CPP,"[2]; TNF KO + rMIF 20 ng/ml, n = 4",91.5 ± 6.6 mmHg
same,CVR,"[2]; TNF KO + rMIF 20 ng/ml, n = 4",61.0 ± 4.4 mmHg
same,DR,"[2]; TNF KO + rMIF 20 ng/ml, n = 4",1.30 ± 0.10
same,HR,"[2]; TNF KO + rMIF 20 ng/ml, n = 4",335 ± 20 bpm
same,RT90,"[2]; TNF KO + rMIF 20 ng/ml, n = 4",71.3 ± 4.2 ms
same,TPP,"[2]; TNF KO + rMIF 20 ng/ml, n = 4",67.0 ± 2.4 ms
same,Time to Max +dP/dt,"[2]; TNF KO + rMIF 20 ng/ml, n = 4",47.0 ± 2.4 ms
same,Time to Max −dP/dt,"[2]; TNF KO + rMIF 20 ng/ml, n = 4",47.0 ± 2.4 ms
same,dP40,"[2]; TNF KO + rMIF 20 ng/ml, n = 4",1613 ± 105 mmHg/sec
same,−dP/dt max,"[2]; TNF KO + rMIF 20 ng/ml, n = 4",1413 ± 151 mmHg/sec
same,LVP,"[2]; TNF KO + rMIF 20 ng/ml, n = 4, mean ± SE",66.0 ± 4.7 mmHg
same,+dP/dt max,"[2]; TNFR−/− + rMIF 20 ng/ml, n = 4",1800 ± 100 mmHg/sec
same,onset of cardiac dysfunction (systolic and diastolic),"[2]; isolated hearts (Langendorf prep), both TNFR−/− and wild type mice",≤ 20 min
same,+dP/dt max,[3]; n = 5,1400 ± 158 mmHg/sec
same,CPP,[3]; n = 5,84.8 ± 8.6 mmHg
same,CVR,[3]; n = 5,56.5 ± 5.7 mmHg
same,DR,[3]; n = 5,1.32 ± 0.06
same,HR,[3]; n = 5,338 ± 10 bpm
same,RT90,[3]; n = 5,75.2 ± 2.9 ms
same,TPP,[3]; n = 5,71.6 ± 1.6 ms
same,Time to Max +dP/dt,[3]; n = 5,49.2 ± 0.5 ms
same,Time to Max −dP/dt,[3]; n = 5,52.4 ± 1.7 ms
same,dP40,[3]; n = 5,1240 ± 174 mmHg/sec
same,−dP/dt max,[3]; n = 5,1070 ± 146 mmHg/sec
same,LVP,"[3]; n = 5, mean ± SE",55.6 ± 5.9 mmHg
same,Coronay Perfusion Pressue,[4]; [5],86.0 ± 23 mmHg
same,Coronay Vascular Resistance,[4]; [5],57.3 ± 7.7 mmHg
same,Heart Rate,[4]; [5],318 ± 2 bpm
same,Left Ventricular Pressure,[4]; [5],52.7 ± 6.6 mmHg
same,Time to 90% Relaxation,[4]; [5],73.3 ± 4.4 ms
same,Time to Max +dP/dt,[4]; [5],47.0 ± 2.1 ms
same,Time to Max −dP/dt,[4]; [5],49.0 ± 1.5 ms
same,Time to Peak Pressue,[4]; [5],74.0 ± 3.1 ms
same,dP40,[4]; [5],1200 ± 115 mmHg/sec
same,−dP/dt max,[4]; [5],1233 ± 159 mmHg/sec
same,+dP/dt,[4]; [6],1650 and 1100
same,DR,[4]; [6],1.1 and 1.158 and 1.2
same,HR,[4]; [6],320 and 315
same,LVP,[4]; [6],62 and 40 and 56
same,Max + d,[4]; [6],48 and 50 and 43
same,Max − d,[4]; [6],52 and 48 and 47
same,RT90,[4]; [6],80 and 75 and 65
same,TPP,[4]; [6],72 and 80 and 70
same,dP40,[4]; [6],1400 and 1000 and 1200
same,−dP/dt,[4]; [6],950 and 1250
same,DR,[4]; [7],1.153
same,HR,[4]; [7],318.3333
same,LVP,[4]; [7],52.67
same,Max + d,[4]; [7],47
same,Max − d,[4]; [7],49
same,RT90,[4]; [7],73.33
same,TPP,[4]; [7],74
same,−dP/dt,[4]; [7],1233.333
